Results reported in patent publication US20080292760A1, “Semi-Solid Food Products and Methods For Their Production, Based on Inhibiting Amylase Starch Breakdown” (WAGENINGEN CENTRE FOR FOOD SCIENCES, priority 2004, published 2008).

Assay: amylase study: sensory rating of vanilla custard desserts with added amylase
Format: in vivo, human
Protocol: The role of salivary amylase in modifying texture sensations was evaluated in the following examples, in which the level of amylase activity was varied within subjects, rather than between subjects. Alpha-amylase was added in varying concentrations to starch and CMC (non-starch)-based vanilla custard desserts. Additionally, amylase activity was inhibited to various degrees by adding the pharmaceutical amylase inhibitor Acarbose (CAS nr. 56180-94-0) in various concentrations to the same test foods.
Eighteen subjects, 11 females and 7 males aged between 18 and 34 yrs, participated the ‘amylase study’ and 7 different subjects, all females aged between 39 and 56 yrs, participated in the ‘acarbose study’. The subjects participating in the latter study had been informed about acarbose and its possibly side effects if swallowed. To avoid these side effects, subjects expectorated rather than swallowed the acarbose samples. All subjects signed consent forms expressing their willingness to participate in the studies, and all had previously been screened for olfactory and taste disorders and had received extensive training in the description of sensory mouthfeel and afterfeel attributes for semi-solid foods. Testing took place at the sensory facilities of TNO-Nutrition and Food Research in Zeist, The Netherlands.
For the ‘amylase study’, two commercially available full-fat vanilla custard desserts (3 wt % fat AH vanille vla or “AH”, Albert Heijn Corp., Zaandam, The Netherlands; and 3 wt % fat Boerenland via or “BL”, Campina Corp., Woerden, The Netherlands) were used as the two starch-based vanilla custard desserts. For the ‘acarbose study’, Boerenland via was used again but the Albert Heijn via was replaced by a low-fat dairy custard (0.1 wt % fat Creamex, Creamex Corp., Rijkervoort, The Netherlands).
In both studies, the effect of amylase and acarbose on starch-based custards was compared with their effects on non-starch custards to verify amylase-starch interactions. A non-starch custard was produced using full-fat (3 wt %) commercially available milk (Campina Corp., Woerden, The Netherlands) and adding 0.85 wt % of sodium carboxy methylcellulose (or “CMC”) (Akuell AF 3295, Akzo Nobel Corp., Amersfoort, The Netherlands), 6.25 wt % of sugar and 0.33 wt % of vanilla powder. Yellow colorant (Egg yellow, Supercook, Leeds, United Kingdom) was added at 3.33 ml/l custard to match the color of the starch-based custards.
For the amylase study, a bacterial α-amylase (from Bacillus licheniformis, with 15 wt % NaCl and 25 wt % sucrose, Sigma Corp., Zwijndrecht, The Netherlands) was used to prepare amylase solutions at concentrations of 40, 160, and 640 units in 100 μl aliquots of water. This concentration range is similar to the range of individual amylase levels found across a group of young and healthy subjects (Engelen, unpublished results). The amylase concentrations, including a control of 0 units, were added to 5 ml samples of the starch-based custards. Only the highest concentration, 640 units, and the control were added to 5 ml samples of the CMC custard.
Panelists were seated in sensory booths with appropriate ventilation and lighting. Testing took place over either 3 (‘amylase study’) or 1.5 (‘acarbose study’) sessions of 2 hours. Within each session, subjects were presented with 20 trials during which they received in the amylase study each of the three custards once with the various amounts of amylase and with two different processing instructions. Over the 3 sessions, each custard was presented 3 times in each condition. In the ‘acarbose study’, each of the three custards with various amounts of acarbose were presented twice in the first session, and once in the second half session. The stimulus presentation order was randomized per subject and per session. The trials were presented at an average rate of one trial per 5 minutes. A break separated the first and the second half of each session. […]

[1] = R, AH custard, amylase 40 units
[2] = R, AH custard, amylase 160 units
[3] = R, AH custard, amylase 640 units
[4] = R, BL custard, amylase 40 units
[5] = R, BL custard, amylase 160 units
[6] = R, BL custard, amylase 640 units
[7] = R, CMC custard, amylase 640 units
[8] = U, AH custard, amylase 40 units
[9] = U, AH custard, amylase 160 units
[10] = U, AH custard, amylase 640 units
[11] = U, BL custard, amylase 40 units
[12] = U, BL custard, amylase 160 units
[13] = U, BL custard, amylase 640 units
[14] = U, CMC custard, amylase 640 units

B1: Amylase: bacterial α-amylase from Bacillus licheniformis, with 15 wt % NaCl and 25 wt % sucrose, Sigma Corp. (protein, UniProt P06278 30-512, looked up)
Alpha-amylase: ANLNGTLMQYFEWYMPNDGQHWKRLQNDSAYLAEHGITAVWIPPAYKGTSQADVGYGAYDLYDLGEFHQKGTVRTKYGTKGELQSAIKSLHSRDINVYGDVVINHKGGADATEDVTAVEVDPADRNRVISGEHRIKAWTHFHFPGRGSTYSDFKWHWYHFDGTDWDESRKLNRIYKFQGKAWDWEVSNENGNYDYLMYADIDYDHPDVAAEIKRWGTWYANELQLDGFRLDAVKHIKFSFLRDWVNHVREKTGKEMFTVAEYWQNDLGALENYLNKTNFNHSVFDVPLHYQFHAASTQGGGYDMRKLLNSTVVSKHPLKAVTFVDNHDTQPGQSLESTVQTWFKPLAYAFILTRESGYPQVFYGDMYGTKGDSQREIPALKHKIEPILKARKQYAYGAQHDYFDHHDIVGWTREGDSSVANSGLAALITDGPGGAKRMYVGRQNAGETWHDITGNRSEPVVINSEGWGEFHVNGGSVSIYVQR
modifications: formulated with NaCl and sucrose
- decrease of creamy mouthfeel (AH custard, amylase added): up to 25%
- airy-mo [1]: 25
- bitter/chem-fl [1]: 30
- creamy-af [1]: 38
- creamy-mo [1]: 44
- fatty-af [1]: 29
- heterogeneous-mo [1]: 26
- prickling-mo [1]: 19
- rough-af [1]: 26
- smooth-mo [1]: 65
- sticky-af [1]: 28
- temperature-mo [1]: 38
- thick-mo [1]: 41
- airy-mo [2]: 25
- bitter/chem-fl [2]: 38
- creamy-af [2]: 35
- creamy-mo [2]: 37
- fatty-af [2]: 31
- heterogeneous-mo [2]: 29
- prickling-mo [2]: 20
- rough-af [2]: 25
- smooth-mo [2]: 62
- sticky-af [2]: 29
- temperature-mo [2]: 35
- thick-mo [2]: 38
- airy-mo [3]: 25
- bitter/chem-fl [3]: 44
- creamy-af [3]: 34
- creamy-mo [3]: 35
- fatty-af [3]: 29
- heterogeneous-mo [3]: 33
- prickling-mo [3]: 25
- rough-af [3]: 23
- smooth-mo [3]: 61
- sticky-af [3]: 29
- temperature-mo [3]: 38
- thick-mo [3]: 41
- airy-mo [4]: 28
- bitter/chem-fl [4]: 22
- creamy-af [4]: 35
- creamy-mo [4]: 43
- fatty-af [4]: 28
- heterogeneous-mo [4]: 24
- prickling-mo [4]: 17
- rough-af [4]: 28
- smooth-mo [4]: 63
- sticky-af [4]: 29
- temperature-mo [4]: 37
- thick-mo [4]: 41
- airy-mo [5]: 29
- bitter/chem-fl [5]: 32
- creamy-af [5]: 35
- creamy-mo [5]: 45
- fatty-af [5]: 30
- heterogeneous-mo [5]: 27
- prickling-mo [5]: 19
- rough-af [5]: 26
- smooth-mo [5]: 63
- sticky-af [5]: 29
- temperature-mo [5]: 37
- thick-mo [5]: 40
- airy-mo [6]: 25
- bitter/chem-fl [6]: 40
- creamy-af [6]: 37
- creamy-mo [6]: 37
- fatty-af [6]: 30
- heterogeneous-mo [6]: 32
- prickling-mo [6]: 23
- rough-af [6]: 26
- smooth-mo [6]: 64
- sticky-af [6]: 29
- temperature-mo [6]: 37
- thick-mo [6]: 38
- airy-mo [7]: 36
- bitter/chem-fl [7]: 45
- creamy-af [7]: 39
- creamy-mo [7]: 39
- fatty-af [7]: 36
- heterogeneous-mo [7]: 34
- melting-mo [7]: 35
- prickling-mo [7]: 25
- rough-af [7]: 21
- smooth-mo [7]: 47
- sticky-af [7]: 37
- temperature-mo [7]: 44
- thick-mo [7]: 49
- vanilla-fl [7]: 30
- airy-mo [8]: 25
- bitter/chem-fl [8]: 35
- creamy-af [8]: 36
- creamy-mo [8]: 44
- fatty-af [8]: 29
- heterogeneous-mo [8]: 28
- prickling-mo [8]: 19
- rough-af [8]: 30
- smooth-mo [8]: 62
- sticky-af [8]: 31
- temperature-mo [8]: 41
- thick-mo [8]: 39
- airy-mo [9]: 27
- bitter/chem-fl [9]: 37
- creamy-af [9]: 37
- creamy-mo [9]: 39
- fatty-af [9]: 28
- heterogeneous-mo [9]: 27
- prickling-mo [9]: 19
- rough-af [9]: 27
- smooth-mo [9]: 65
- sticky-af [9]: 28
- temperature-mo [9]: 39
- thick-mo [9]: 38
- airy-mo [10]: 26
- bitter/chem-fl [10]: 47
- creamy-af [10]: 34
- creamy-mo [10]: 36
- fatty-af [10]: 28
- heterogeneous-mo [10]: 28
- prickling-mo [10]: 22
- rough-af [10]: 27
- smooth-mo [10]: 66
- sticky-af [10]: 31
- temperature-mo [10]: 40
- thick-mo [10]: 32
- airy-mo [11]: 27
- bitter/chem-fl [11]: 27
- creamy-af [11]: 37
- creamy-mo [11]: 42
- fatty-af [11]: 28
- heterogeneous-mo [11]: 27
- prickling-mo [11]: 17
- rough-af [11]: 30
- smooth-mo [11]: 65
- sticky-af [11]: 31
- temperature-mo [11]: 42
- thick-mo [11]: 37
- airy-mo [12]: 26
- bitter/chem-fl [12]: 32
- creamy-af [12]: 38
- creamy-mo [12]: 43
- fatty-af [12]: 29
- heterogeneous-mo [12]: 27
- prickling-mo [12]: 17
- rough-af [12]: 31
- smooth-mo [12]: 62
- sticky-af [12]: 32
- temperature-mo [12]: 42
- thick-mo [12]: 41
- airy-mo [13]: 27
- bitter/chem-fl [13]: 38
- creamy-af [13]: 35
- creamy-mo [13]: 39
- fatty-af [13]: 29
- heterogeneous-mo [13]: 33
- prickling-mo [13]: 20
- rough-af [13]: 31
- smooth-mo [13]: 66
- sticky-af [13]: 34
- temperature-mo [13]: 41
- thick-mo [13]: 37
- airy-mo [14]: 46
- bitter/chem-fl [14]: 52
- creamy-af [14]: 39
- creamy-mo [14]: 40
- fatty-af [14]: 41
- heterogeneous-mo [14]: 38
- melting-mo [14]: 32
- prickling-mo [14]: 24
- rough-af [14]: 21
- smooth-mo [14]: 49
- sticky-af [14]: 44
- temperature-mo [14]: 48
- thick-mo [14]: 53
- vanilla-fl [14]: 29
- effect on odor, mouthfeel or afterfeel attributes (non-starch CMC-based custard, added amylase): failed to affect any of the odor, mouthfeel or afterfeel attributes
- intensity of bitter/chemical flavor, change when amylase added (non-starch CMC-based custard, p=0.01): increased
- bitter/chemical flavor, change with increasing amylase concentration (starch-based custards): increased significantly
- creamy mouthfeel, change with increasing amylase concentration (starch-based custards, p<0.0001): decreased
- melting mouthfeel, change with increasing amylase concentration (starch-based custards, p=0.001): increased significantly
- vanilla flavor, change with increasing amylase concentration (starch-based custards, p=0.001): decreased
- thick mouthfeel, change with increasing amylase concentration (starch-based custards, p=0.004): decreased
- heterogeneous mouthfeel, change with increasing amylase concentration (starch-based custards, p=0.006): increased significantly
- fatty afterfeel, change with increasing amylase concentration (starch-based custards, p=0.05): decreased
